Test [1] has as its target T1, chicken gizzard Tpm (Gallus gallus, UniProt P19352).
T1 construct: purchased Sigma; host or cells: chicken gizzard (tissue-derived, as the name says)
Briefly: Binding of HKa to purified Tpm immobilized in 96 well microplates. The conditions noted are these: for inhibition of binding of HKa to purified immobilized Tpm (in words): 20 nM biotin-HKa, 10 μM Zn2+. Here is the method: To measure the binding of HKa to purified Tpm, 96 well microplates were coated with 20 μg/ml of chicken gizzard Tpm (Sigma), or bovine serum albumin (BSA), as a control. Wells were then blocked by incubation with phosphate buffered saline containing 5% nonfat milk, and incubated with increasing concentrations of HKa (0.01-20 nM) for 2 hours. Specifically-bound HKa was quantitated as described for cell binding assays (van Iwaarden et al., supra, and by assessing the ability of a 100-fold molar excess of unlabeled HKa to compete with biotin-HKa for binding.
In selected experiments, the ability of mAb TM-311 and recombinant HKa D5 to inhibit the binding of biotin-HKa to Tpm was assessed. These studies allowed determination of the Kd for binding of HKa D5 to Tpm using the equation: Kd (D5)=IC50/(1+[HKa]/Kd (HKa)) where IC50 is the concentration of HKa D5 that inhibited HKa binding by 50%, and Kd(HKa) is the Kd for binding of HKa to Tpm.

Test [2] concerns the target T1, chicken gizzard Tpm. Briefly: Binding to immobilized Tpm in a 96 well plate (biotin-HKa competition or direct binding). Here is the method:
Plates are coated at room temperature with chicken gizzard Tpm (Sigma) in Tris buffer-saline (TBS) (200 ng/well). After incubation for 2 hours, wells are washed with TBS, then 1% BSA/TBS/Tween-20 is added to each well and incubate at 37° C. for two hours. HKa (Enzyme Laboratories) that had been previously biotinylated with EZ-Link (Pierce) according to the manufacturers instructions, is added to the plate at a concentration of 10 nM together with ZnCl2 (10 μM) and the appropriate concentration of the protein, domain or peptide competitor. The plates are incubated at room temperature and then washed with TBS/Tween-20. Avidin-HRP is added, incubated for 20 minutes at room temperature, washed with TBS/Tween-20 and the chromogenic substrate is added. The reaction is stopped with sulfuric acid and the plate read at 490 nm.
The IC50 for the displacement of biotinylated-HKa for the peptides shown in Table 5 was determined as follows: 10 nM biotin-HKa is added to a 96 well plate previously coated with 200 ng of chicken gizzard Tpm in the presence of 10 μM ZnCl2. Increasing amounts of the peptides are added to the wells. The remaining biotin-HKa bound to Tpm was detected using avidin-HRP and a chromogenic substrate. A Kd was determined by non-linear regression analysis of the empirical data. The effect on the Matrigel Plug assay was determined as follows: Matrigel (0.5 mL) containing 400 ng/ml of bFGF, 50 μg/ml heparin with or without the peptide (300 μM) or saline buffer are injected in the flanks of a mouse. After five days, the plugs are removed and the plugs scanned.
The N-terminus of the pentapeptide HHPHG has been derivatized (capped) in an attempt to increase the pentapeptides' affinity to Tpm by increasing productive molecular contacts (or interactions). […] The IC50 for the displacement of biotinylated-HKa for the capped peptides shown in the table was determined as follows: 10 nM biotin-HKa was added to a 96 well plate previously coated with 200 ng of chicken gizzard Tpm in the presence of 10 μM ZnCl2. Increasing amounts of the peptides were added to the wells. The remaining biotin-HKa bound to Tpm was detected using avidin-HRP and a chromogenic substrate. A Kd was determined by non-linear regression analysis of the empirical data

Test [3] deals with HUVEC. Briefly: EC proliferation assay (growth factor-induced). The format is cell-based, human. The conditions noted are these: bFGF 10 ng/ml; 20 nM HKa, 60 nM HKa domain 5. Here is the method: EC proliferation assays. The effect of HKa on ECs in the absence or presence of mAb TM-311 was initially assessed using a proliferation assay, as described in Zhang et al., supra. Relative numbers of cells remaining in each well of a 96 well microplate after incubation for 48 hours in the absence or presence of HKa were determined using the Aqueous® cell proliferation assay (Promega, Madison, Wis.). Results are presented as the percent inhibition of bFGF-induced EC proliferation, which essentially reflects the extent of HKa-induced EC apoptosis. Though bFGF was used as the EC mitogen in most studies of the studies described herein, identical results were obtained using VEGF.

The target in test [4] is hTm3 (Homo sapiens, UniProt P09493). To be noted: SPR, MacDonald et al. 2001; read-out: Kd of binding to immobilized hTm3; cited from earlier work.
Setting [5] is: competition with 10 nM biotin-HKa.
The mark [6] stands for this setting: plate coated with 200 ng chicken gizzard Tpm, 10 μM ZnCl2.

T1 sequence (P19352 1-284 isoform P19352-2): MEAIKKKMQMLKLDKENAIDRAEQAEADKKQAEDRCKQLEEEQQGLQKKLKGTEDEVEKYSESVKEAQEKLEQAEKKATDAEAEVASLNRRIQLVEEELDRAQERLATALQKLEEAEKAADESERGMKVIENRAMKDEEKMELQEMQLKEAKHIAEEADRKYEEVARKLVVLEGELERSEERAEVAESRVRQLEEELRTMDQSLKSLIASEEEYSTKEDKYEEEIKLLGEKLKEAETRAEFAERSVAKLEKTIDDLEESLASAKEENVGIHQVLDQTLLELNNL
T1 sequence (P04268 1-284 isoform P04268-2 F73S/I172L/T199L/N203E/L204A partner): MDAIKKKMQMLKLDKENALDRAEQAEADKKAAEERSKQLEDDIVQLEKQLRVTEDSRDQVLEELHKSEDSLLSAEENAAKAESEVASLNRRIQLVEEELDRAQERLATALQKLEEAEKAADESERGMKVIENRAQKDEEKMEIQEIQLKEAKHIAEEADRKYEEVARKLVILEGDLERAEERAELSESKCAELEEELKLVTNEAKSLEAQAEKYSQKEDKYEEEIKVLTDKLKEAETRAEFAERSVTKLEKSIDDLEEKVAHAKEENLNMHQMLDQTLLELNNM
Chain of hTm3 (P09493 1-284 isoform P09493-3): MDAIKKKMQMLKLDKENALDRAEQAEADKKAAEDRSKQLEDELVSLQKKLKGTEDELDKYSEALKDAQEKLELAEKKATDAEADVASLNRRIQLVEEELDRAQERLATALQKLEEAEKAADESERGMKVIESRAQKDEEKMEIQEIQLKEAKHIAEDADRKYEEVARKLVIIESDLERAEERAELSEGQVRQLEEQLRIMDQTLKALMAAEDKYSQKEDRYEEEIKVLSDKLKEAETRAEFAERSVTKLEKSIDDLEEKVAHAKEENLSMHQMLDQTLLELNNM

B1: HKa D5: Recombinant HKa domain 5, 125 residue D5 domain, SEQ ID NO:26 (protein, listed as Homo sapiens)
chain: VSPPHTSMAPAQDEERDSGKEQGHTRRHDWGHEKQRKHNLGHGHKHERDQGHGHQRGHGLGHGHEQQHGLGHGHKFKLDDDLEHQGGHVLDHGHKHKHGHGHGKHKNKGKKNGKHNGWKTEHLAS
Consider B1, for which the “inhibition of binding of HKa to purified immobilized Tpm (in words)” value in test [1] was “blocked binding”; in test [1] (listed as HKa domain 5) it was “inhibits binding”. The Kd (in general, the free concentration of one partner at which half of the binding sites on the other are occupied at equilibrium, for simple one-to-one binding) in test [1] (from IC50 of competition with biotin-HKa (equation of b366), read-out: estimated Kd of binding to Tpm) is roughly 2.1 nM; in test [2] (setting [6]) it was roughly 1 nM. Moreover, the “affinity for immobilized Tpm relative to endostatin (fold higher)” value in test [2] (setting [5]) was “approximately 1,000 fold”. Further, the “inhibition of bFGF-induced EC proliferation (in words)” value in test [3] was “inhibition”.

B2: H/P domain: Histidine-Proline rich domain of HPRG, responsible for anti-angiogenic activity (protein)
chain: SVNIIHRPPPHGHHPHGPPPHGHHPHGPPPHGHPPHGPPPRHPPHGPPPHGHPPHGPPPHGHPPHGPPPHGHPPHGPPPHGHPPHGHGFHDHGPCDPPSHK
Consider B2, for which the “affinity for immobilized Tpm relative to endostatin (fold higher)” value in test [2] (setting [5]) is “approximately 1,000 fold”. In addition, the Kd in test [2] (setting [6]) was roughly 2 nM.

B3: endostatin: Zn2+-binding, antiangiogenic polypeptide comprised of the NC domain of collagen XVIII (protein, UniProt P39060 1572-1754, looked up)
Endostatin: HSHRDFQPVLHLVALNSPLSGGMRGIRGADFQCFQQARAVGLAGTFRAFLSSRLQDLYSIVRRADRAAVPIVNLKDELLFPSWEALFSGSEGPLKPGARIFSFDGKDVLRHPTWPQKSVWHGSDPNGRRLTESYCETWRTEAPSATGQASSLLGGRLLGQSAASCHHAYIVLCIENSFMTASK
modifications: Endostatin
For the molecule B3, in test [2], the “Kd relative to that reported previously by SPR (fold better)” value is reported as 50 fold and the “affinity relative to HKa or HKa-D5 binding (fold lower)” value is recorded as “approximately 1,000 fold”. In addition, the Kd in test [2] (competition with 10 nM biotin-HKa, 10 μM ZnCl2) is roughly 2000 nM. The Kd in test [4] was roughly 100000 nM.

B4: rabbit HPRG: rabbit Histidine-Proline-Rich Glycoprotein, SEQ ID NO:22 (protein)
chain: LTPTDCKTTKPLAEKALDLINKWRRDGYLFQLLRVADAHLDGAESATVYYLVLDVKETDCSVLSRKHWEDCDPDLTKRPSLDVIGQCKVIATRYSDEYQTLRLNDFNCTTSSVSSALANTKDSPVLFDFIEDTEPFRKSADKALEVYKSESEAYASFRVDRVERVTRVKGGERTNYYVDFSVRNCSRSHFHRHPAFGFCRADLSFDVEASNLENPEDVIISCEVFNFEEHGNISGFRPHLGKTPLGTDGSRDHHHPHKPHKFGCPPPQEGEDFSEGPPLQGGTPPLSPPFRPRCRHRPFGTNETHRFPHHRISVNIIHRPPPHGHHPHGPPPHGHHPHGPPPHGHPPHGPPPRHPPHGPPPHGHPPHGPPPHGHPPHGPPPHGHPPHGPPPHGHPPHGHGFHDHGPCDPPSHKEGPQDLHQHAMGPPPKHPGKRGPGKGHFPFHWRRIGSVYQLPPLQKGEVLPLPEANFPQLLLRNHTHPLKPEIQPFPQVASERCPEEFNGEFAQLSKFFPSTFPK
Turning to B4, the “binding to immobilized Tpm / displacement of biotin-HKa (in words)” value in test [2] (10 nM biotin-HKa, 200 ng chicken gizzard Tpm, 10 μM ZnCl2) was “binds”. Further, in test [2] (setting [6]), the dissociation constant (Kd) is roughly 2 nM.

These data come from patent publication US20050124794A1, “Cell surface tropomyosin as a target of angiogenesis inhibition” (priority 2002, published 2005).
